Like-named read-outs stand apart in the source and are kept apart here.
Columns and labels:
[1] = molecular target: T1, c-Src (Homo sapiens, UniProt P12931); test: ADP-Glo assay of compounds as c-Src substrates (ADP production); type: biochemical; settings: for Vmax / Km: Table S3, ADP-Glo assay of SrcDEL10 derivatives, enzyme Src; for activity as substrate in ADP-Glo assay (words): SrcDEL10 derivatives compared with parental compound
Method: (§1) Hit molecules were initially characterized as substrates for c-Src using the luciferase-based ADP-Glo assay (Promega). All six molecules appeared to be efficient substrates for Src kinase.
(§2) Kinase reaction was performed as follows 1x kinase buffer (25 mM Tris-HCl (pH 7.5), 2 mM dithiothreitol (DTT), 0.1 mM Na3VO4, 10 mM MgCl2), 1 mM ATP, different concentrations (1 μM to 100 μM) of substrates (either off DNA or on DNA hit molecules), and 12 nM rSrc by incubation for 2 h at 30 °C. After that, distinct 55mers were annealed to each kinase reaction, as previously described. The annealed reactions were incubated with anti Pho-Tyr loaded protein G magnetic bead at RT for 30 min. After washing by three times 20 μL 1xPBST with 1 mg/mL BSA, 1 mg/mL tRNAs), the captured samples were eluted by 20 μL of 1 mM phenylphosphate. The resulting supernatant was then used as a template in qPCR.
(§3) After the kinase reaction was performed as previous section, the reaction mixture (5 μL) was incubated with 5 µL of ADP-Glo™ reagent at RT for 40 min and then add 10 µL of kinase detection reagent at RT for 1 h. The luminescence was measure by plate reader.

[2] = molecular target: T1, c-Src; test: radiolabel (32P-ATP) inhibition assay of LYNtide phosphorylation by c-Src; type: biochemical; settings: 32P-ATP 50 µM, biotinylated-LYNtide 50 µM
Method: The original six off-DNA hits were tested for inhibition of c-Src activity. For these tests, we used ^32P-ATP as a substrate and detected phosphorylation levels of a biotinylated-LYNtide substrate after adsorption to streptavidin coated membranes. This assay should not be affected by activation of ATP hydrolysis or phosphotransfer to the small molecules. […] There was no apparent correlation of these values to the Km or kcat values in the prior assays as substrates.
Each hit molecule was preincubated with 1.2 nM c-Src at 30 °C for 30 min. The kinase reaction was initiated with the addition of 50 μM LYNtide and 50 μM ATP with 0.15 μCi gamma ^32P ATP at 30 °C for 10 min. The kinase reaction samples (2 µL) were spotted on P81 filter paper consisting of 1.5 cm squares. After air dry, the P81 papers were washed 4 times with 0.5% phosphoric acid for 5 min each. The P81 papers were washed one time with acetone for 5 min. The papers were then allowed to air dry for about 20 min. The dried P81 papers were analyzed by liquid scintillation counter.
Figure 6 Inhibition of hit molecules in a radiolabel assay with ^32P-ATP (50 µM) and biotinylated-LYNtide (50 µM) as substrates.

[3] = molecular target: T1, c-Src; test: NADH-based coupled enzyme assay detecting ADP generation; type: biochemical; settings: 1 mM ATP, 100 µM compound, 12 nM Src, 30 °C, 3 h
Method: To confirm this, compounds were tested with an NADH-based, coupled enzyme assay that also detects ADP generation. […] This additionally supported that the ADP-Glo activity observed was due to activation of ATP hydrolysis and not phosphotransfer to these compounds.
Kinase reaction was performed as follows 1x kinase buffer (25 mM Tris-HCl (pH 7.5), 2 mM dithiothreitol (DTT), 0.1 mM Na3VO4, 10 mM MgCl2), 1 mM ATP, 100 μM peptides and 12 nM Src at 30 °C for 3 h. The kinase reaction mixture was incubated with 30 unit/mL lactic dehydrogenase (LDH), 20 unit/mL pyruvate kinase (PK), 2 mM phosphoenolpyruvate (PEP), and 1 mM NADH. The absorbance of NADH was monitored at 340 nm.
Figure S8. NADH Coupled Assay of Hit Molecules with c-Src. Samples were composed of 1 mM ATP,
100 µM putative substrate molecules, and 12 nM c-Src kinase at 30 C for 3 hours. Full method description
is provided in Methods and Materials 4.6 NADH assay.

[4] = test system: c-Src; settings: cited from earlier work
[5] = test system: C[C@H](NC(=O)c1ccc(CN(CC2CC2)C(=O)CCO)cc1)C(=O)N(CCc1ccc(O)cc1)CC(N)=O; test: ADP-Glo assay of compounds as c-Src substrates (ADP production); type: biochemical; settings: other: Table S3, ADP-Glo assay of SrcDEL10 derivatives, enzyme Src; pH 7.5; 30.0 °C
Method: as §1, §2, §3

[6] = test system: N=C(N)NCCC[C@H](NC(=O)CN(Cc1ccco1)C(=O)CCO)C(=O)N(CCc1ccc(O)cc1)Cc1ccc(C(N)=O)cc1; test: as above; type: biochemical; settings: other: ADP-Glo assay, compound as substrate of c-Src; pH 7.5; 30.0 °C
Method: as §1, §2, §3

[7] = test system: NC(=O)C1Cc2ccc(O)cc2CN1C(=O)C(CC(=O)O)NC(=O)c1ccc(CN(CC2CC2)C(=O)CCO)cc1; test: as above; type: biochemical; settings: other: Table S3, ADP-Glo assay of SrcDEL10 derivatives, enzyme Src; pH 7.5; 30.0 °C
Method: as §1, §2, §3

[8] = test system: NC(=O)CN(CCc1ccccc1)C(=O)[C@H](CC(=O)O)NC(=O)c1ccc(CN(CC2CC2)C(=O)CCO)cc1; test: as above; type: biochemical; settings: pH 7.5, 30.0 °C
Method: as §1, §2, §3

[9] = test system: NC(=O)CN(CCCCCCO)C(=O)c1ccc(CNC(=O)[C@H](Cc2ccc(O)cc2)NC(=O)CCc2ccc(O)cc2)cc1; test: as above; type: biochemical; settings: other: ADP-Glo assay, compound as substrate of c-Src; pH 7.5; 30.0 °C
Method: as §1, §2, §3

[10] = test system: NC(=O)[C@H](Cc1cccnc1)NC(=O)CN(CC1CC1)C(=O)CCc1ccc(O)cc1; test: as above; type: biochemical; settings: other: ADP-Glo assay, compound as substrate of c-Src; pH 7.5; 30.0 °C
Method: as §1, §2, §3

[11] = test system: NC(=O)CN(CCc1ccc(O)cc1)C(=O)[C@H](CC(=O)O)NC(=O)c1cccc(CN(CC2CC2)C(=O)CCO)c1; test: as above; type: biochemical; settings: other: Table S3, ADP-Glo assay of SrcDEL10 derivatives, enzyme Src; pH 7.5; 30.0 °C
Method: as §1, §2, §3

[12] = test system: NC(=O)C(Cc1cccnc1)NC(=O)CN(CCc1ccc(O)cc1)C(=O)C1Cc2c([nH]c3ccccc23)CN1C(=O)CCO; test: as above; type: biochemical; settings: other: ADP-Glo assay, compound as substrate of c-Src; pH 7.5; 30.0 °C
Method: as §1, §2, §3

[13] = test system: NC(=O)CN(CCc1ccc(O)cc1)C(=O)[C@H](CCC(=O)O)NC(=O)c1ccc(CN(CC2CC2)C(=O)CCO)cc1; test: as above; type: biochemical; settings: other: Table S3, ADP-Glo assay of SrcDEL10 derivatives, enzyme Src; pH 7.5; 30.0 °C
Method: as §1, §2, §3

[14] = test system: O=C(O)C[C@H](NC(=O)c1ccc(CN(CC2CC2)C(=O)CCO)cc1)C(=O)NCCc1ccc(O)cc1; test: as above; type: biochemical; settings: other: Table S3, ADP-Glo assay of SrcDEL10 derivatives, enzyme Src; pH 7.5; 30.0 °C
Method: as §1, §2, §3

[15] = test system: NC(=O)CN(CCc1ccc(O)cc1)C(=O)[C@H](CC(=O)O)NC(=O)c1ccc(CN(CC2CC2)C(=O)CCO)cc1; test: as above; type: biochemical; settings: other: ADP-Glo assay, compound as substrate of c-Src; pH 7.5; 30.0 °C
Method: as §1, §2, §3

[16] = test system: NC(=O)[C@H](Cc1ccc(O)cc1)NC(=O)[C@H](CC(=O)O)NC(=O)c1ccc(CN(CC2CC2)C(=O)CCO)cc1; test: as above; type: biochemical; settings: other: Table S3, ADP-Glo assay of SrcDEL10 derivatives, enzyme Src; pH 7.5; 30.0 °C
Method: as §1, §2, §3

[17] = test system: NC(=O)C(Cc1ccc(O)cc1)NC(=O)CN(CCCCCCO)C(=O)C1Cc2ccccc2N1C(=O)CCc1ccc(O)cc1; test: as above; type: biochemical; settings: other: ADP-Glo assay, compound as substrate of c-Src; pH 7.5; 30.0 °C
Method: as §1, §2, §3

[18] = optimal natural peptide sequence for c-Src, reference not given
[19] = c-Src substrates lacking acidic residues, Lam and coworkers
[20] = other: Table S3, ADP-Glo assay of SrcDEL10 derivatives, enzyme Src

## C[C@H](NC(=O)c1ccc(CN(CC2CC2)C(=O)CCO)cc1)C(=O)N(CCc1ccc(O)cc1)CC(N)=O [Src 10-2]
[1]
  Vmax: 0.492 µM/min

## O=C(O)C[C@H](NC(=O)c1ccc(CN(CC2CC2)C(=O)CCO)cc1)C(=O)NCCc1ccc(O)cc1 [Src 10-3]
[1]
  Vmax: 0.382 µM/min

## NC(=O)CN(CCc1ccc(O)cc1)C(=O)[C@H](CC(=O)O)NC(=O)c1cccc(CN(CC2CC2)C(=O)CCO)c1 [Src 10-4]
[1]
  Vmax: 0.54 µM/min

## NC(=O)CN(CCc1ccccc1)C(=O)[C@H](CC(=O)O)NC(=O)c1ccc(CN(CC2CC2)C(=O)CCO)cc1 [Src 10-6]
[1]
  activity as substrate in ADP-Glo assay (words): comparable substrate to the parental compound

## CCCN(Cc1ccc(C(=O)N[C@@H](CC(=O)O)C(=O)N(CCc2ccc(O)cc2)CC(N)=O)cc1)C(=O)CCO [Src 10-8]
[1]; listed as 10–8
  activity as substrate in ADP-Glo assay (words): lacked activity altogether
[1]; listed as Src-10-8
  activity as substrate in ADP-Glo assay (words): No activity
[1]
  Km: > 100 µM

## CC(=O)N(Cc1ccc(C(=O)N[C@@H](CC(=O)O)C(=O)N(CCc2ccc(O)cc2)CC(N)=O)cc1)CC1CC1 [Src 10-9]
[1]
  Km: > 100 µM

## NC(=O)CN(Cc1cccc(O)c1)C(=O)[C@H](CC(=O)O)NC(=O)c1ccc(CN(CC2CC2)C(=O)CCO)cc1 [Src 10-10]
[1]
  Km: > 100 µM

## NC(=O)C(Cc1cccnc1)NC(=O)CN(CCc1ccc(O)cc1)C(=O)C1Cc2c([nH]c3ccccc23)CN1C(=O)CCO (centres unmarked) [SrcDEL5]
[2]
  IC50: 64 µM
[3]
  ADP generation relative to compound: large molar excess

## N=C(N)NCCC[C@H](NC(=O)CN(Cc1ccco1)C(=O)CCO)C(=O)N(CCc1ccc(O)cc1)Cc1ccc(C(N)=O)cc1 [SrcDEL8]
[2]
  IC50: 96 µM
[3]
  ADP generation relative to compound: large molar excess

## NC(=O)CN(CCCCCCO)C(=O)c1ccc(CNC(=O)[C@H](Cc2ccc(O)cc2)NC(=O)CCc2ccc(O)cc2)cc1 [SrcDEL14]
[2]
  IC50: 18 µM
[3]
  ADP generation relative to compound: little turnover

## NC(=O)C(Cc1ccc(O)cc1)NC(=O)CN(CCCCCCO)C(=O)C1Cc2ccccc2N1C(=O)CCc1ccc(O)cc1 (centres unmarked) [SrcDEL16]
[2]
  IC50: 26 µM
[3]
  ADP generation relative to compound: little turnover

## NC(=O)[C@H](Cc1cccnc1)NC(=O)CN(CC1CC1)C(=O)CCc1ccc(O)cc1 [SrcDEL21]
[3]
  ADP generation relative to compound: large molar excess

## EEEIYGIFG
[4]; [18]
  Km: 14 µM
  kcat: 2.9 s⁻¹

## GIYWHHY [efficient c-Src peptide substrate lacking acidic residues]
[4]; [19]
  Km: 21 µM

## YIYGSFK [efficient c-Src peptide substrate lacking acidic residues]
[4]; [19]
  Km: 55 µM

## c-Src (Homo sapiens)
[5]
  Km: 4.31 µM
  kcat: 0.683 s⁻¹
  kcat/Km: 9. 52 1/min/uM
[6]
  Km: 19 µM
  kcat: 2.5 s⁻¹
  kcat/Km: 130000 M⁻¹ s⁻¹
[7]
  Km: 15.4 µM
  kcat: 122. 8 1/min
  kcat/Km: 7. 95 1/min/uM
[8]; other: ADP-Glo assay
  kcat/Km: 6.9 min⁻¹ µM⁻¹
[8]; [20]
  Km: 21.1 µM
  kcat: 144. 9 1/min
  kcat/Km: 6. 86 1/min/uM
[9]
  Km: 13 µM
  kcat: 0.75 s⁻¹
  kcat/Km: 55000 M⁻¹ s⁻¹
[10]
  Km: 28 µM
  kcat: 1.43 s⁻¹
  kcat/Km: 50000 M⁻¹ s⁻¹
[11]
  Km: 9.68 µM
  kcat: 44. 66 1/min
  kcat/Km: 4. 61 1/min/uM
[12]
  Km: 33 µM
  kcat: 5.83 s⁻¹
  kcat/Km: 183000 M⁻¹ s⁻¹
[13]
  Km: 20.7 µM
  kcat: 92. 84 1/min
  kcat/Km: 4. 49 1/min/uM
[14]
  Km: 3.79 µM
  kcat: 24. 21 1/min
  kcat/Km: 6. 39 1/min/uM
[15]
  Km: 18 µM
  kcat: 1.37 s⁻¹
  kcat/Km: 76700 M⁻¹ s⁻¹
[16]
  Km: 4.37 µM
  kcat: 89. 33 1/min
  kcat/Km: 20. 56 1/min/uM
[17]
  Km: 18 µM
  kcat: 0.533 s⁻¹
  kcat/Km: 30000 M⁻¹ s⁻¹

Reference: publication PMC6695731, “Application of a Substrate-Mediated Selection with c-Src Tyrosine Kinase to a DNA-Encoded Chemical Library” (Molecules, 2019)
